Assay [1] deals with Aβ42 fibrils (immobilized Aβ(1-42) fibrils) (UniProt P05067). Nature of the assay: SPR (Sensi Q), immobilized Aβ(1-42) fibrils, fit of a single curve; inset table row 2 (the row's concentration, 1 or 3 µM, is not given).
For assay [2] the target is unchanged. In words: SPR (Sensi Q), immobilized Aβ(1-42) fibrils, fit of a single curve; (the concentration, 1 or 3 µM, is not given).
For assay [3] the target is unchanged. In words: SPR, Aβ fibrils (summary of the Examples). (In general: In SPR one partner is held on a chip, and binding of the other changes the refractive index at the surface.)
Assay [4] has the same target. Nature of the assay: SPR, Aβ42 fibrils immobilized, Langmuir 1:1 fit.
The target is the same in assay [5]. Nature of the assay: SPR, Aβ42 fibrils immobilized, Langmuir 1:1 fit, curves fitted separately; upper end of the range from curves fitted separately (1, 3, 6 µM RI-OR2-TAT).
Assay [6] shares this target. In words: SPR, Aβ42 fibrils immobilized, Langmuir 1:1 fit, curves fitted separately; lower end of the range from curves fitted separately (1, 3, 6 µM RI-OR2-TAT).

This note sets out measurements from patent US20140356418A1.

Chain of Aβ42 fibrils (immobilized Aβ(1-42) fibrils) (P05067 672-713 limits assumed): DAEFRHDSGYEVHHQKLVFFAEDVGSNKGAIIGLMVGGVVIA

As a reminder, the Kd is the free concentration of one partner at which half of the binding sites on the other are occupied at equilibrium, for simple one-to-one binding. A high value points to weaker binding. A word on the koff: it is a measure of how fast the partners let go of each other. Read a low koff as slow dissociation. In general, kon refers to a measure of how fast the partners come together. The low end stands for slow association, the high end for fast association. In assay [1], “PINPs (Peptide Inhibitor NanoParticles): RI-OR2-TAT covalently attached to nanoliposomes” returned a Kd of 44.7 nM, a koff of 5.31e-05 s⁻¹ and a kon of 1190 M⁻¹ s⁻¹. In assay [2], this substance had a Kd of 14.8 nM, an off-rate (koff) of 6.71e-05 s⁻¹ and an on-rate constant (kon) of 4520 M⁻¹ s⁻¹. Besides, the Kd in assay [3] lay within 14 to 44 nM.
As to “RI-OR2-TAT (Ac-rGffvlkGrrrrqrrkkrGy-NH2) (peptide)”, the koff in assay [4] is 0.00037 s⁻¹; in assay [1] it was 0.000994 s⁻¹; in assay [2], 0.00096 s⁻¹. The on-rate constant (kon) in assay [4] worked out at 3680 M⁻¹ s⁻¹; in assay [1] it was 23900 M⁻¹ s⁻¹; in assay [2], 12700 M⁻¹ s⁻¹. For the same substance, the Kd is 58 to 125 nM in assay [5]; 58 to 125 nM in assay [6]; 41.5 nM in assay [1]; 75.6 nM in assay [2]; 41 to 75 nM in assay [3].
